Data published in paper PMC10918085, “Cryo-EM structures reveal how phosphate release from Arp3 weakens actin filament branches formed by Arp2/3 complex” (Nature Communications, 2024).

T1: ARPC1 of S. pombe Arp2/3 complex (S. pombe, UniProt P78774 1-377)
T1 construct: ARPC1 subunit of S. pombe Arp2/3 complex; Seen within the whole complex in the branch junction
T1 sequence: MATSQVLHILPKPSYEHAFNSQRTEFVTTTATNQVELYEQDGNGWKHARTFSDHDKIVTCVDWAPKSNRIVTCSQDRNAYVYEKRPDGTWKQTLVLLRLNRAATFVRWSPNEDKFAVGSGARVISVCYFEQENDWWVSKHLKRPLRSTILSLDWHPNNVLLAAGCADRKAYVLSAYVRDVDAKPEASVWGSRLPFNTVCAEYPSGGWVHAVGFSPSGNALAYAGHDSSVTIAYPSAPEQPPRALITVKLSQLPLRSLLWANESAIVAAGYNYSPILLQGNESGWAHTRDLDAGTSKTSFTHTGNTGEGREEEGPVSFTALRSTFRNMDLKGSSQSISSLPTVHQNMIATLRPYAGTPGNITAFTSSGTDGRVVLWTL


How the values were obtained:
Conditions in all cases: both partners purified
[1] = target: T2, Arp2 of S. pombe Arp2/3 complex (S. pombe, UniProt Q9UUJ1 1-390); experiment: cryo-EM structure; ADP state: branch junctions of capped rabbit actin filaments with GCN4-VCA-activated S. pombe Arp2/3 complex, aged ~90 min; ADP on actin and Arp3, ATP on Arp2; 2.7 Å
T2 construct: Arp2 subunit of S. pombe Arp2/3 complex; Seen within the whole complex in the branch junction

[2] = target: T2, Arp2 of S. pombe Arp2/3 complex; experiment: cryo-EM structure; ADP-BeFx state: branch junctions prepared as for the ADP state, with 2 mM BeFx (2 mM BeSO4 and 10 mM NaF) added during daughter filament formation; ADP-BeFx on Arp3, ATP on Arp2; 3.2 Å
[3] = target: T1, ARPC1 of S. pombe Arp2/3 complex; experiment: as above

T2 sequence (Q9UUJ1 whole entry, one chain of several): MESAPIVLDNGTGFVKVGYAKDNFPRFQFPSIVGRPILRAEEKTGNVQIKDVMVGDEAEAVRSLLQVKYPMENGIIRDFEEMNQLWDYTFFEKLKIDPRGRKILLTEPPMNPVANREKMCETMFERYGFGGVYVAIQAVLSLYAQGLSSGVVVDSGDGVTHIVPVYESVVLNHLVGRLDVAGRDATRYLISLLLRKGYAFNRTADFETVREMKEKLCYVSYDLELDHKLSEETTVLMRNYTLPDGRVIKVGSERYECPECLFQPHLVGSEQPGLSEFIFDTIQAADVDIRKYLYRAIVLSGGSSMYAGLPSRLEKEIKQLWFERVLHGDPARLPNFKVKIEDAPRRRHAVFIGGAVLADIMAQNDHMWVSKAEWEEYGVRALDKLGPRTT

| Binder | binding result [1] | binding result [2] | binding result [3] |
| --- | --- | --- | --- |
| ARPC3 of S. pombe Arp2/3 complex (natural protein, ARPC3 subunit of S. pombe Arp2/3 complex; Seen within the whole complex in the branch junction) MPAYHSSFLSLTDVPTTGNIAMLPLKTKFRGPAYPADESQMDIIDECIGLFRANCFFRNFEIKGPADRTLIYGTLFISECLGRVNGLNYRDAERQLNSLALENFSIPGSAGFPLNALYAPPLSPQDAEIMRTYLTQFRQELAYRLLSHVYATEKDHPSKWWTCFSKRRFMNKAL | binds |  |  |
| ARPC2 of S. pombe Arp2/3 complex (natural protein, ARPC2 subunit of S. pombe Arp2/3 complex; Seen within the whole complex in the branch junction) MLSLDYNNIFIYELLTERFSSENPSSIDQVVTDFDGVTFHISTPEEKTKILISLSMKCYPELVNYGTLDLLKQIYGAYVHEPEMGYNFSILIDLQQLPATDEEKEQLAMSISMLKRNVLAAPFHRAFTKQAELADLARKDPENAPMLDKQATSQELMAIHYRDEETIVLWPEHDRVTVVFSTKFREETDRIFGKVFLQEFVDARRRPAIQTAPQVLFSYRDPPLEIRDIQGIQKGDDFGFVTFVLFERHFTPQNREDCISHIQVFRNTLHFHIKASKAYMHQRMRKRVADFQKVLNRAKPDVELERKTATGRSFVRA |  | binds | binds |
